From PMC5686351, “Tudor-domain protein PHF20L1 reads lysine methylated retinoblastoma tumour suppressor protein” (Cell Death and Differentiation, 2017) come the findings set out here.

Sequences and labels used below:
T1: His-PHF20L1 tudor 1 (UniProt A8MW92 11-71)
T1 construct: PHD-finger protein 20-like 1 (PHF20L1), tudor 1 domain; the GST construct of tudor 1 is 1-74; also called pET28a-PHF20L1 tudor 1; source: E. coli BL21 (DE3), purified
T1 sequence (looked up): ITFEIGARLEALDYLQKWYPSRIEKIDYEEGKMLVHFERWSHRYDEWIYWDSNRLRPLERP

B1: His-PHF20L1 (full length) (natural protein)
chain: MSKKPPNRPGITFEIGARLEALDYLQKWYPSRIEKIDYEEGKMLVHFERWSHRYDEWIYWDSNRLRPLERPALRKEGLKDEEDFFDFKAGEEVLARWTDCRYYPAKIEAINKEGTFTVQFYDGVIRCLKRMHIKAMPEDAKGQFLFQVKSQHPLSWCCPIDPAGSCNQSMGSEDWIALVKAAAAAAAKNKTGSKPRTSANSNKDKDKDERKWFKVPSKKEETSTCIATPDVEKKEDLPTSSETFVGLHVENVPKMVFPQPESTLSNKRKNNQGNSFQAKRARLNKITGLLASKAVGVDGAEKKEDYNETAPMLEQV
B2: RbK810me1 peptide (biotin-GNIYISPLK[me]SPYKISEG) (peptide)
peptide: Biotin-GNIYISPLK(Me)SPYKISEG
notes: retinoblastoma protein (pRb), stretch around K810, K810 mono-methylated; also called mono-methylated K810 pRb peptide; biotinylated RbK810me1; source: synthetic peptide

Experiment [1] concerns the target B2. As to the kind of experiment: BLI; peptides immobilised; His-PHF20L1 tudor 1 or full-length His-PHF20L1 in seven 2.5-fold dilutions from 200 μM; 250 s association, 250 s dissociation. The conditions noted are these: both partners purified.
The target of another experiment is T1, His-PHF20L1 tudor 1. The experiment is described as above. The conditions noted are these: both partners purified.

As a reminder, the Kd is the constant that tells how readily two partners part at equilibrium.

Where no end group is shown, it is not given here. The star is where a group is joined. Biotin = O=C1N[C@H]2[C@H](CS[C@H]2CCCCC(=O)*)N1

On to B1, for which binding in experiment [1] was characterised by a dissociation constant (Kd) of 34 µM. B2 showed a Kd in the experiment with His-PHF20L1 tudor 1 of 28 µM.
